Test results published in US20120316071A1 (published 2012).

B1: Fab VH1-46_IGHD6-6*01_IGHJ1*01 S103stop & L6_IGKJ1*01 (Fab, V domains shown)
VH: QVQLVQSGAEVKKPGASVKVSCKASGYTFTSYYMHWVRQAPGQGLEWMGIINPSGGSTSYAQKFQGRVTMTRDTSTSTVYMELSSLRSEDTAVYYCAREEYS
VL: not shown
notes: The heavy chain is therefore truncated in CDR3 and carries no CH1 or tags
B2: Fab VH1-46_IGHD6-6*01_IGHJ1*01 S102A & L6_IGKJ1*01 (Fab, V domains shown)
VH: QVQLVQSGAEVKKPGASVKVSCKASGYTFTSYYMHWVRQAPGQGLEWMGIINPSGGSTSYAQKFQGRVTMTRDTSTSTVYMELSSLRSEDTAVYYCAREEYASSSAEYFQHWGQGTLVTVSS
VL: not shown
notes: Fab; heavy chain CDR3 NNK mutant of the parent; Constant parts as for the parent Fab
B3: Fab VH1-46_IGHD6-6*01_IGHJ1*01 S102A/S103P/S104F/H111F (APFF) & L6_IGKJ1*01 (Fab, V domains shown)
VH: QVQLVQSGAEVKKPGASVKVSCKASGYTFTSYYMHWVRQAPGQGLEWMGIINPSGGSTSYAQKFQGRVTMTRDTSTSTVYMELSSLRSEDTAVYYCAREEYAPFSAEYFQFWGQGTLVTVSS
VL: not shown
notes: Tested as Fab made in E. coli: VH in Plasmid A (CH1, His6 and Flag tags), VL in Plasmid C (kappa CL); also called APFF / parent; H:APFF & L:wt
B4: Fab VH1-46_IGHD6-6*01_IGHJ1*01 S102V & L6_IGKJ1*01 (Fab, V domains shown)
VH: QVQLVQSGAEVKKPGASVKVSCKASGYTFTSYYMHWVRQAPGQGLEWMGIINPSGGSTSYAQKFQGRVTMTRDTSTSTVYMELSSLRSEDTAVYYCAREEYVSSSAEYFQHWGQGTLVTVSS
VL: not shown
notes: as for B2
B5: Fab VH1-46_IGHD6-6*01_IGHJ1*01 S103H & L6_IGKJ1*01 (Fab, V domains shown)
VH: QVQLVQSGAEVKKPGASVKVSCKASGYTFTSYYMHWVRQAPGQGLEWMGIINPSGGSTSYAQKFQGRVTMTRDTSTSTVYMELSSLRSEDTAVYYCAREEYSHSSAEYFQHWGQGTLVTVSS
VL: not shown
notes: as for B2
B6: Fab VH1-46_IGHD6-6*01_IGHJ1*01 S102I & L6_IGKJ1*01 (Fab, V domains shown)
VH: QVQLVQSGAEVKKPGASVKVSCKASGYTFTSYYMHWVRQAPGQGLEWMGIINPSGGSTSYAQKFQGRVTMTRDTSTSTVYMELSSLRSEDTAVYYCAREEYISSSAEYFQHWGQGTLVTVSS
VL: not shown
notes: as for B2
B7: Fab VH1-46_IGHD6-6*01_IGHJ1*01 S103C & L6_IGKJ1*01 (Fab, V domains shown)
VH: QVQLVQSGAEVKKPGASVKVSCKASGYTFTSYYMHWVRQAPGQGLEWMGIINPSGGSTSYAQKFQGRVTMTRDTSTSTVYMELSSLRSEDTAVYYCAREEYSCSSAEYFQHWGQGTLVTVSS
VL: not shown
notes: as for B2
B8: Fab VH1-46_IGHD6-6*01_IGHJ1*01 S102G & L6_IGKJ1*01 (Fab, V domains shown)
VH: QVQLVQSGAEVKKPGASVKVSCKASGYTFTSYYMHWVRQAPGQGLEWMGIINPSGGSTSYAQKFQGRVTMTRDTSTSTVYMELSSLRSEDTAVYYCAREEYGSSSAEYFQHWGQGTLVTVSS
VL: not shown
notes: as for B2
B9: Fab VH1-46_IGHD6-6*01_IGHJ1*01 S103P & L6_IGKJ1*01 (Fab, V domains shown)
VH: QVQLVQSGAEVKKPGASVKVSCKASGYTFTSYYMHWVRQAPGQGLEWMGIINPSGGSTSYAQKFQGRVTMTRDTSTSTVYMELSSLRSEDTAVYYCAREEYSPSSAEYFQHWGQGTLVTVSS
VL: not shown
notes: as for B2
B10: Fab VH1-46_IGHD6-6*01_IGHJ1*01 S102Q & L6_IGKJ1*01 (Fab, V domains shown)
VH: QVQLVQSGAEVKKPGASVKVSCKASGYTFTSYYMHWVRQAPGQGLEWMGIINPSGGSTSYAQKFQGRVTMTRDTSTSTVYMELSSLRSEDTAVYYCAREEYQSSSAEYFQHWGQGTLVTVSS
VL: not shown
notes: Fab; heavy chain CDR3 NNK mutant of the parent; Constant parts as for the parent Fab (CH1 with His6/Flag tags, kappa CL)
B11: Fab VH5-51_IGHD5-18*01>3_IGHJ4*01 G100K/G104T (H:KT) & V3-4_IGLJ1*01 (Fab, V domains shown)
VH: EVQLVQSGAEVKKPGESLKISCKGSGYSFTSYWIGWVRQMPGKGLEWMGIIYPGDSDTRYSPSFQGQVTISADKSISTAYLQWSSLKASDTAMYYCARRKYSYTYDYFDYWGQGTLVTVSS
VL: QTVVTQEPSFSVSPGGTVTLTCGLSSGSVSTSYYPSWYQQTPGQAPRTLIYSTNTRSSGVPDRFSGSILGNKAALTITGAQADDESDYYCVLYMGSGISYVFGTGTKVTVL
notes: Tested as purified Fab made in E. coli; also called H:KT & L:wt; KT double mutant
B12: Fab VH5-51_IGHD5-18*01>3_IGHJ4*01 G100K/G104T (H:KT) & V3-4_IGLJ1*01 S99A (Fab, V domains shown)
VH: EVQLVQSGAEVKKPGESLKISCKGSGYSFTSYWIGWVRQMPGKGLEWMGIIYPGDSDTRYSPSFQGQVTISADKSISTAYLQWSSLKASDTAMYYCARRKYSYTYDYFDYWGQGTLVTVSS
VL: QTVVTQEPSFSVSPGGTVTLTCGLSSGSVSTSYYPSWYQQTPGQAPRTLIYSTNTRSSGVPDRFSGSILGNKAALTITGAQADDESDYYCVLYMGSGIAYVFGTGTKVTVL
notes: Fab; CH1 (His6/Flag tags, plasmid A) and lambda CL (plasmid E) as for the parent
B13: Fab VH5-51_IGHD5-18*01>3_IGHJ4*01 G100K/G104T (H:KT) & V3-4_IGLJ1*01 I98A (Fab, V domains shown)
VH: EVQLVQSGAEVKKPGESLKISCKGSGYSFTSYWIGWVRQMPGKGLEWMGIIYPGDSDTRYSPSFQGQVTISADKSISTAYLQWSSLKASDTAMYYCARRKYSYTYDYFDYWGQGTLVTVSS
VL: QTVVTQEPSFSVSPGGTVTLTCGLSSGSVSTSYYPSWYQQTPGQAPRTLIYSTNTRSSGVPDRFSGSILGNKAALTITGAQADDESDYYCVLYMGSGASYVFGTGTKVTVL
notes: as for B12
B14: Fab VH5-51_IGHD5-18*01>3_IGHJ4*01 G100K/G104T (H:KT) & V3-4_IGLJ1*01 G95A (Fab, V domains shown)
VH: EVQLVQSGAEVKKPGESLKISCKGSGYSFTSYWIGWVRQMPGKGLEWMGIIYPGDSDTRYSPSFQGQVTISADKSISTAYLQWSSLKASDTAMYYCARRKYSYTYDYFDYWGQGTLVTVSS
VL: QTVVTQEPSFSVSPGGTVTLTCGLSSGSVSTSYYPSWYQQTPGQAPRTLIYSTNTRSSGVPDRFSGSILGNKAALTITGAQADDESDYYCVLYMASGISYVFGTGTKVTVL
notes: as for B12
B15: Fab VH5-51_IGHD5-18*01>3_IGHJ4*01 G100K/G104T (H:KT) & V3-4_IGLJ1*01 Y93A (Fab, V domains shown)
VH: EVQLVQSGAEVKKPGESLKISCKGSGYSFTSYWIGWVRQMPGKGLEWMGIIYPGDSDTRYSPSFQGQVTISADKSISTAYLQWSSLKASDTAMYYCARRKYSYTYDYFDYWGQGTLVTVSS
VL: QTVVTQEPSFSVSPGGTVTLTCGLSSGSVSTSYYPSWYQQTPGQAPRTLIYSTNTRSSGVPDRFSGSILGNKAALTITGAQADDESDYYCVLAMGSGISYVFGTGTKVTVL
notes: as for B12
B16: Fab VH5-51_IGHD5-18*01>3_IGHJ4*01 G100K/G104T (H:KT) & V3-4_IGLJ1*01 S96A (Fab, V domains shown)
VH: EVQLVQSGAEVKKPGESLKISCKGSGYSFTSYWIGWVRQMPGKGLEWMGIIYPGDSDTRYSPSFQGQVTISADKSISTAYLQWSSLKASDTAMYYCARRKYSYTYDYFDYWGQGTLVTVSS
VL: QTVVTQEPSFSVSPGGTVTLTCGLSSGSVSTSYYPSWYQQTPGQAPRTLIYSTNTRSSGVPDRFSGSILGNKAALTITGAQADDESDYYCVLYMGAGISYVFGTGTKVTVL
notes: as for B12
B17: Fab VH5-51_IGHD5-18*01>3_IGHJ4*01 G100K/G104T (H:KT) & V3-4_IGLJ1*01 G97A (Fab, V domains shown)
VH: EVQLVQSGAEVKKPGESLKISCKGSGYSFTSYWIGWVRQMPGKGLEWMGIIYPGDSDTRYSPSFQGQVTISADKSISTAYLQWSSLKASDTAMYYCARRKYSYTYDYFDYWGQGTLVTVSS
VL: QTVVTQEPSFSVSPGGTVTLTCGLSSGSVSTSYYPSWYQQTPGQAPRTLIYSTNTRSSGVPDRFSGSILGNKAALTITGAQADDESDYYCVLYMGSAISYVFGTGTKVTVL
notes: as for B12
B18: Fab VH5-51_IGHD5-18*01>3_IGHJ4*01 G100K/G104T (H:KT) & V3-4_IGLJ1*01 V91A (Fab, V domains shown)
VH: EVQLVQSGAEVKKPGESLKISCKGSGYSFTSYWIGWVRQMPGKGLEWMGIIYPGDSDTRYSPSFQGQVTISADKSISTAYLQWSSLKASDTAMYYCARRKYSYTYDYFDYWGQGTLVTVSS
VL: QTVVTQEPSFSVSPGGTVTLTCGLSSGSVSTSYYPSWYQQTPGQAPRTLIYSTNTRSSGVPDRFSGSILGNKAALTITGAQADDESDYYCALYMGSGISYVFGTGTKVTVL
notes: as for B12
B19: Fab VH5-51_IGHD5-18*01>3_IGHJ4*01 G100K/G104T (H:KT) & V3-4_IGLJ1*01 M94A (Fab, V domains shown)
VH: EVQLVQSGAEVKKPGESLKISCKGSGYSFTSYWIGWVRQMPGKGLEWMGIIYPGDSDTRYSPSFQGQVTISADKSISTAYLQWSSLKASDTAMYYCARRKYSYTYDYFDYWGQGTLVTVSS
VL: QTVVTQEPSFSVSPGGTVTLTCGLSSGSVSTSYYPSWYQQTPGQAPRTLIYSTNTRSSGVPDRFSGSILGNKAALTITGAQADDESDYYCVLYAGSGISYVFGTGTKVTVL
notes: as for B12
B20: Fab VH5-51_IGHD5-18*01>3_IGHJ4*01 G100K/G104T (H:KT) & V3-4_IGLJ1*01 L92A (Fab, V domains shown)
VH: EVQLVQSGAEVKKPGESLKISCKGSGYSFTSYWIGWVRQMPGKGLEWMGIIYPGDSDTRYSPSFQGQVTISADKSISTAYLQWSSLKASDTAMYYCARRKYSYTYDYFDYWGQGTLVTVSS
VL: QTVVTQEPSFSVSPGGTVTLTCGLSSGSVSTSYYPSWYQQTPGQAPRTLIYSTNTRSSGVPDRFSGSILGNKAALTITGAQADDESDYYCVAYMGSGISYVFGTGTKVTVL
notes: as for B12

Assays:
[1] = biological target: T1, Recombinant Human DLL4 (R&D Systems Cat#1506-D4/CF) (human, UniProt Q9NR61 27-524); experiment: ECL 96-well plate assay; 0.02 uM Fab, plate coated with 30 ug/mL DLL4
T1 construct: Bought recombinant protein; also called delta-like protein 4; rHuman DLL4

[2] = biological target: T1, Recombinant Human DLL4 (R&D Systems …); experiment: ECL 96-well plate assay; 0.004 uM Fab, plate coated with 15 ug/mL DLL4
[3] = biological target: T2, rHuman ErbB2/Fc Chimera, CF (R&D Systems Cat#1129-ER) (human, UniProt P04626 23-652); experiment: ECL multispot (MSD) binding assay, antigen spotted on plate;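 note: purified Fab incubated 1 h at 20 °C on antigen spots, detected with TAG-labelled antibody, electrochemiluminescence compared with each well's blank, signal-to-blank ratio ≥4 counted as hit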
T2 construct: Bought recombinant protein; also called human epidermal growth factor 2 receptor

[4] = biological target: T3, rHuman P-Cadherin/Fc Chimera, CF (R&D Systems Cat#861-PC) (human, UniProt P22223 108-654); experiment: as above
T3 construct: Bought recombinant protein

[5] = biological target: T4, rHuman HGF R/c-MET/Fc Chimera, CF (R&D Systems Cat#358-MT/CF) (human, UniProt P08581 25-932); experiment: as above
T4 construct: Bought recombinant protein; also called HGF R/Fc; hepatocyte growth factor receptor
T4 sequence (P08581 25-932, change not shown): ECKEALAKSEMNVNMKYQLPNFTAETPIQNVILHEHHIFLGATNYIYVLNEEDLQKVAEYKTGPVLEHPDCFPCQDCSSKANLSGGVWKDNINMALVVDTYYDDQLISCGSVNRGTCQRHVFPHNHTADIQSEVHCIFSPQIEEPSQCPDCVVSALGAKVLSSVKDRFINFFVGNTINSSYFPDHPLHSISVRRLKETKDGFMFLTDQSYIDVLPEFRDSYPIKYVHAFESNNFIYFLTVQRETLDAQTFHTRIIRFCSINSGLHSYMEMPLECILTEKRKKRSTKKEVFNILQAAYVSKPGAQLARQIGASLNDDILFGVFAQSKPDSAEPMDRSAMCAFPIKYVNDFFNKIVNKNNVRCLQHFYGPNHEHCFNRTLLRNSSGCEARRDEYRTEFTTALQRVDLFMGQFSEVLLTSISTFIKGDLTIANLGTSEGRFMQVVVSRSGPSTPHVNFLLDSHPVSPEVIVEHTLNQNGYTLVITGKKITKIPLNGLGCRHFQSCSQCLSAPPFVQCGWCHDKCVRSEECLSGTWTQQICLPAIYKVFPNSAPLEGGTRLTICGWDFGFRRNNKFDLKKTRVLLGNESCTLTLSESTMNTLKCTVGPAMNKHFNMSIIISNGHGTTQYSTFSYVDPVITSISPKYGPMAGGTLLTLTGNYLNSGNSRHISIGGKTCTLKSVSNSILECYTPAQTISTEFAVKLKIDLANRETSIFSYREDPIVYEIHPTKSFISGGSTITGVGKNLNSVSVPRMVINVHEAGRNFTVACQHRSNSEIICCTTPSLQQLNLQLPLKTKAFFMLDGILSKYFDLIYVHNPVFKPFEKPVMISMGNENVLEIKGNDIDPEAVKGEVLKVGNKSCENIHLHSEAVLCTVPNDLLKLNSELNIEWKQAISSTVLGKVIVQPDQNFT

[6] = biological target: T5, rHuman IGF-1 sR, (IGF-1 sR), CF (R&D Systems Cat#391-GR) (human, UniProt P08069 31-932); experiment: as above
T5 construct: Bought recombinant soluble receptor; also called insulin-like growth factor-1 soluble receptor

[7] = biological target: T6, Recombinant Human DLL4 (R&D Systems Cat#1506-D4/CF) (human, UniProt Q9NR61 27-524); experiment: as above
T6 construct: Bought recombinant protein; also called delta-like protein 4; rHuman DLL4

[8] = biological target: T7, rHuman EGF R/Fc Chimera, CF (R&D Systems Cat#344-ER) (human, UniProt P00533 25-645); experiment: as above
T7 construct: Bought recombinant protein; also called epidermal growth factor receptor

[9] = biological target: T8, Recombinant Human DLL4 (R&D Systems Cat#1506-D4/CF) (human, UniProt Q9NR61 27-524); experiment: ECL (MSD) multispot binding assay, immobilised recombinant human DLL4, Fab at 0.04 uM
T8 construct: also called delta-like protein 4; Delta-like 4

Binder	Signal/Noise [1]	Signal/Noise [2]	ECL Signal/Noise [9]	further results
B1	0.8	1.1		
B2	51.7	69.8		
B3				ECL signal [3]: 312; ECL signal [4]: 450; ECL signal [5]: 347; ECL signal [6]: 433; ECL signal [7]: 172000; ECL signal [8]: 370
B4	35.9	36.5		
B5	21.7	31.7		
B6	35.3	34.5		
B7	27.1	27.4		
B8	5.1	5.2		
B9	59.7	82.4		
B10	40.6	31.9		
B11			49.2	
B12			41	
B13			32.6	
B14			34.4	
B15			21.3	
B16			57.9	
B17			24.7	
B18			48.5	
B19			53.1	
B20			30.3	
